Results published in article PMC9363494, “C-terminal truncation modulates α-Synuclein’s cytotoxicity and aggregation by promoting the interactions with membrane and chaperone” (Communications Biology, 2022).

Target: T1, C-terminally truncated α-synuclein (residues 1-99) (UniProt P37840 1-99)
T1 construct: α-synuclein with a deletion of the C-terminus, amino acids 1-99; Uniformly 15N-enriched for the NMR experiments; also called CT-α-syn; source: E. coli BL21 (DE3), purified (SP cation exchange, Superdex 75)
Assay: NMR titration; 1H-15N HSQC of 0.3 mM 15N-enriched FL- or CT-α-syn titrated with PDI (mole ratios 10:1 to 1:1, 0-300 μM PDI); 20 mM HEPES, 100 mM NaCl, 5 mM TCEP, pH 7.0, 10% D2O, 15 °C; KD from fits of the average CSPs of residues in segment 1 and in segment 2
Details: both partners purified

- KD of segment 1: ~40 µM
- KD of segment 2: ~400 µM
B1: protein disulfide isomerase (enzyme)
chain: not shown
notes: human protein disulfide isomerase (PDI); the human PDI gene cloned into pET-28a; The vector has a TEV protease cleavage site after the His6-tag; no cleavage step is described; also called PDI; source: E. coli BL21 (DE3), purified (HisTrap, Resource Q, Superdex 200)
